# Test results taken from publication PMC8385704 (Signal Transduction and Targeted Therapy, 2021).
# B1: monoclonal antibody 3E8 (antibody, V domains shown)
# VH: EVQLEESGAELVRPGASVKISCKAFGYTFTNHHINWMKQRPGQGLDWIGYVNPYNDYTKYSQNFKGKATLSVDRSSSTAYMELSSLTSEDSAVYYCARWRDYDRDWYFDVWGAGTTVIVSS
# VL: DIVMTQSPATLSVTPGDRVSLSCRASQSIRDYLYWYQQKSHESPRLLIKYASQSISGIPSRFSGSGSGSDFTLSINSVEPEDVGVYYCQNGHSFPYTFGGGTKLEIK
# How the values were obtained:
# [1] = biological target: T1, His-tagged recombinant human ACE2 protein (residues 19-740), dimeric (Homo sapiens, UniProt Q9BYF1); assay: BLI; settings: both partners purified
# T1 construct: also called hACE2-his; His-tagged human ACE2
# [2] = biological target: T1, His-tagged recombinant human ACE2 …; assay: ELISA; 3E8 and His-tagged recombinant human ACE2 protein; who was coated is not told; settings: both partners purified
# T1 sequence (Q9BYF1 19-740): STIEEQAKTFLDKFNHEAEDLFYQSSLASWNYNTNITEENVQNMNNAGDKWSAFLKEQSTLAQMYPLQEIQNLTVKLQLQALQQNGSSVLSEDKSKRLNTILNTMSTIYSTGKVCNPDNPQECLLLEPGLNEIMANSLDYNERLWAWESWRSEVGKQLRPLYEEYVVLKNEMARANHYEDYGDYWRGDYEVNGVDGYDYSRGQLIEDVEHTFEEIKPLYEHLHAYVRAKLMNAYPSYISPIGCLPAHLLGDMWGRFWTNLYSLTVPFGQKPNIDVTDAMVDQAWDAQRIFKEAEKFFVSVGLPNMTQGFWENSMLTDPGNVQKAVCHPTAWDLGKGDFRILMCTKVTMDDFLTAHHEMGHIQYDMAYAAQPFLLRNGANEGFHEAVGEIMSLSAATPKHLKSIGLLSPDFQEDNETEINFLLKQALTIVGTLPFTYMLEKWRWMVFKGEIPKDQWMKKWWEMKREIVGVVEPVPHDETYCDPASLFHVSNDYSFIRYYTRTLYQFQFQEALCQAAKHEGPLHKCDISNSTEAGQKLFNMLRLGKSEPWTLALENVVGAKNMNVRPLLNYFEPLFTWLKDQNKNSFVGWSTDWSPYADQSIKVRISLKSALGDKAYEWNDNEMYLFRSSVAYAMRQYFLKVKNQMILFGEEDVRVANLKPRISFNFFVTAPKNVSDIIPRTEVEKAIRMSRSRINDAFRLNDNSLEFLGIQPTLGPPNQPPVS
binder,measurement,setting,value
B1,Kd,[1],30.5 nM
same,EC50,[2],15.3 nM
